Experimental data: the supplement of paper PMC9170038

System: MS2 coat protein
Test: apparent KD of MS2 coat protein; designed switch direction (-1 OFF switch, 1 ON switch): -1; higher = weaker reporter binding
Summary of the method: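 Apparent KD, taken as the median over clusters for each design, was obtained by curve-fitting normalised cluster fluorescence. Designed RNA switches had been transcribed on Illumina chips by stalled E. coli RNA polymerase and titrated with SNAP-549-labelled MS2 coat protein, doubling from 0.7 or 1.5 nM to 3 µM.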

[1] = input ligand: microRNA oligo, concentration not stated
[2] = Eterna round: R95, input ligand: FMN 200 uM
[3] = Eterna round: R95, input ligand: microRNA oligo, concentration not stated
[4] = Eterna round: R95, input ligand: none

Row | Sequence | apparent KD of MS2 coat protein (input ligand: FMN 200 uM) | apparent KD of MS2 coat protein [1] | apparent KD of MS2 coat protein (input ligand: none) | apparent KD of MS2 coat protein [2] | apparent KD of MS2 coat protein [3] | apparent KD of MS2 coat protein [4]
1 | UAGGGCUGCGGAGGAUAUCCAUAGUGGGCCGGUCGAAGCAUGAGACAUGAGGAUCACCCAUGUCUGGAGAAGGCUGAGCCCUCA [Lequcele] (Eterna round: R96, puzzle: Exclusion NG 2) | 20.8 nM | 12.1 nM | 14.1 nM |  |  | 
2 | CAAAGUUGGUAAGGAUAUCCCACAUUAUUCUGACCCGUGCAAGCUACAUGAGGAUCACCCAUGUGGGAGAAGGUGCGUUAAAGU [Design 2] (Eterna round: R96, puzzle: Exclusion NG 2) | 261 nM | 164 nM | 196 nM |  |  | 
3 | UAUUAACAAGCAUGAUCCCACAUGAGGAUCACCCAUGUGCUCGUCUUAUAAGGUACUGUGACGAAAGUCACGGUACC [Sensor 3, v1 - 85] (puzzle: Sensor v3, turn-off variant 1) |  |  |  | 132 nM | 139 nM | 144 nM
4 | GUCCUACAUGAGGAUCACCCAUGUGAGGAUAUGCGAUUAGCUGCUAGGUAGUUAGUAUGUAGAAGGCGCGUGAA [EX1 #78] (Eterna round: R97, puzzle: Exclusion 1) | 15.6 nM |  | 14.4 nM |  |  | 
5 | CGUCCUCUAGUCAGGAUAUUGUCUCGGAUACGAAACAAGAAGGGACAUGAGGAUCACCCAUGUAAUGAGGACGA [Malc #30 mod 15] (puzzle: Brourd's mod of Exclusion 4) |  |  |  | 20.1 nM | 33.1 nM | 33.8 nM
6 | UUUAAAACAUAGGAUAUCGAAAUAAUCAUUUAACGAGAAGGAUGAACAUGAGGAUCACCCAUGUGGUAUCAUGG [Mat - Exclusion 6 - JL Mod - D18] (puzzle: Exclusion 6) |  |  |  | 364 nM | 230 nM | 409 nM
7 | CGUUCGCGAGGAUAUGCAUUCGAGUCCAUUACGUGUCUGGGACUUGAGGAUCACCCAAGUAGAAGGCGCCUCAC [salish99_ex2_r4_647] (Eterna round: R97, puzzle: Exclusion 2) | 131 nM |  | 153 nM |  |  | 
8 | CUGUUCCGUGUAGGAUAUGCAUAUUCUCAUUAUGCAGAAGGACAUGAGGAUCACCCAUGUAUGUUAUUAUCAUGUGUUACAUGU [Design 6] (Eterna round: R96, puzzle: Exclusion NG 1) |  | 22.4 nM |  |  |  | 
9 | GGAGUGUGAGGAUAUAUGGUGAAGGUGAAGAGAGAGGAGGAGUAGAAGGUACAUGAGGAUCACCCAUGUUUAGG [JR_Exclu4_Sub072] (puzzle: Exclusion 4) |  |  |  |  | 38.5 nM | 
10 | AGUCCUAACACGAAAGUGUUAGUACAAUAAGCUUGUGAAACAUGAGGAUCACCCAUGUCCUCAUAAGCUCGUCUUAU [salish99_TOv2_r3_015] (puzzle: Sensor v3, turn-off variant 2) |  |  |  | 16.6 nM | 896 nM | 16.9 nM
11 | AAUAAAUAAGCAGGAUCCUACAUGAGGAUCACCCAUGUGCUCGUCUUAUAAAGUACUAUCACGAAAGUGAUAGUACA [Mat - Sensor v3 - turn-off var 1 - Eli Mod - D75] (puzzle: Sensor v3, turn-off variant 1) |  |  |  | 115 nM | 103 nM | 145 nM
12 | CCUCGACAUGAGGAUCACCCAUGUAAGGAUAUAAGUGCAGAGGGCGCGUAAUUAAUCGUGAGAAGGUACAACAC (Eterna round: R97, puzzle: Exclusion 1) | 32.1 nM |  | 31.1 nM |  |  | 
13 | UCAGUGCUGCGAGGAUAUACAUGAGGAUCACCCAUGUAAAUGUGUGAGGCUUUGCCUCACACAAUGUAGAAGGCGCAGUACUGU [Mat - Exclusion NG 2 - Mod of JL - D3] (Eterna round: R96, puzzle: Exclusion NG 2) | 17.2 nM | 11.1 nM | 14.3 nM |  |  | 
14 | AGCUGUGGCCGAGGAUAUACAUGAGGAUCACCCAUGUUACAUAAUUAAGCCGGAGAACCGGCUCCGUAGAAGGCGGUCUCAGCA [Eli eng2 - 003] (Eterna round: R96, puzzle: Exclusion NG 2) | 12.6 nM | 9.39 nM | 13.7 nM |  |  | 
15 | GUCGAUGUCAAAGGAUAUCAGCACGUGUAGUGCUGAGAAGGUUGAACAUGAGGAUCACCCAUGUAGAUCAUUAACGACUUAAUU [ENG1/10-A3] (Eterna round: R96, puzzle: Exclusion NG 1) | 56.1 nM | 20.3 nM | 22.9 nM |  |  | 
16 | ACCUCACAUGAGGAUCACCCAUGUCAGGAUAUUCAAACAGGCGGAACUCCGCCUUCUCGAAGAAGGGACAUUAA [Ontebileza] (Eterna round: R96, puzzle: Exclusion 1) | 62.1 nM | 15.9 nM | 16.4 nM |  |  | 
17 | ACGUAUAGAGGAUAUACUGAAUAUUACAUGAGGAUCACCCAUGUUCUUCAAAGUAUAUUUGUAGAAGGCUAAUGAA [EX-5 Malc#9] (puzzle: Exclusion 5) |  |  |  | 15.8 nM | 10.2 nM | 9.61 nM
18 | UGAUCUAGCGGAGGAUAUACAUGAGGAUCACCCAUGUAAUGGUGACGUGCGUACAUGUCACCUGUGUAGAAGGCCGCUAGAUCU [JL ENG2 3.57] (Eterna round: R96, puzzle: Exclusion NG 2) | 11.3 nM | 15.6 nM | 16 nM |  |  | 
19 | AGGCGGAAAGUAAGGAUAUCUUGACCAAAGGGUUGAGAGAAGGUACAUGAGGAUCACCCAUGUGGUGACCGCCA [Morphing Claw (Vienna)] (Eterna round: R97, puzzle: Brourd's mod of Exclusion 4) | 228 nM |  | 685 nM |  |  | 
20 | GUGAUCUAUCAUGGGAUAAACAUGAGGAUCACCCAUGUACACAAGUUUUUUGCUCGUCUUAUAAUAAGAUAGAUCAC [Antenna 3 - Jieux - Sensor, turn-off variant 1] (Eterna round: R97, puzzle: Sensor, turn-off variant 1) | 21 nM |  | 20.9 nM |  |  | 
21 | GCAGGUUAAGUAAGGAUAUACCUCUGGAAACAGAGGUAGAAGGUACAUGAGGAUCACCCAUGUUUCUCUUUUGC [Mod of Eli 5 - Jieux - Brourd's mod of Exclusion 4] (Eterna round: R97, puzzle: Brourd's mod of Exclusion 4) | 24.8 nM |  | 16 nM |  |  | 
22 | ACAGGCUUUUUGCUCGUCUACAUGAGGAUCACCCAUGUGGGAUUGUUGGUUGUGUUGCUUGUUUGUGCUCGUCUUGU [Low Nucleotide] (Eterna round: R97, puzzle: Sensor, turn-off variant 1) | 16.1 nM |  | 17.6 nM |  |  | 
23 | UAAUAAUAGUCAGGAUAUAGUUAUUAUAAUAUACUAGAAGGGACACAUGAGGAUCACCCAUGUUUUAUAAUUUGUAAUUUAAAU [5th something] (Eterna round: R96, puzzle: Exclusion NG 1) |  | 16.2 nM |  |  |  | 
24 | UUUUACAUGCUGAGAUCCUACAUGAGGAUCACCCAUGUGGUCCGGUGACUUUUGUCACCGGACUUAGCUCGUCUUGU [salish99_S_TOV1_R5_100] (Eterna round: R97, puzzle: Sensor, turn-off variant 1) | 191 nM |  | 288 nM |  |  | 
